The target of one assay is CD19 (UniProt P15391). The experiment in a line: cell-based or functional assay.
In a further assay the target is CD20 (UniProt P11836). Nature of the assay: cell-based or functional assay.
Chain of UniProt P11836 (P11836 whole entry): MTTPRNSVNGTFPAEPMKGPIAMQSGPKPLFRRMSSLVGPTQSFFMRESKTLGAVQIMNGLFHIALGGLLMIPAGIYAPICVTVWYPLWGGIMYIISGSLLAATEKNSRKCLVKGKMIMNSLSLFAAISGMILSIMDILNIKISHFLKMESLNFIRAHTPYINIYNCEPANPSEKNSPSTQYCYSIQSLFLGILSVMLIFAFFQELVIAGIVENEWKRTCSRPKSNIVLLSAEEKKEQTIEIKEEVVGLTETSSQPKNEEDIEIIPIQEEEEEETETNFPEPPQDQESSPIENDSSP

Chain of UniProt P15391 (P15391 20-556 limits assumed): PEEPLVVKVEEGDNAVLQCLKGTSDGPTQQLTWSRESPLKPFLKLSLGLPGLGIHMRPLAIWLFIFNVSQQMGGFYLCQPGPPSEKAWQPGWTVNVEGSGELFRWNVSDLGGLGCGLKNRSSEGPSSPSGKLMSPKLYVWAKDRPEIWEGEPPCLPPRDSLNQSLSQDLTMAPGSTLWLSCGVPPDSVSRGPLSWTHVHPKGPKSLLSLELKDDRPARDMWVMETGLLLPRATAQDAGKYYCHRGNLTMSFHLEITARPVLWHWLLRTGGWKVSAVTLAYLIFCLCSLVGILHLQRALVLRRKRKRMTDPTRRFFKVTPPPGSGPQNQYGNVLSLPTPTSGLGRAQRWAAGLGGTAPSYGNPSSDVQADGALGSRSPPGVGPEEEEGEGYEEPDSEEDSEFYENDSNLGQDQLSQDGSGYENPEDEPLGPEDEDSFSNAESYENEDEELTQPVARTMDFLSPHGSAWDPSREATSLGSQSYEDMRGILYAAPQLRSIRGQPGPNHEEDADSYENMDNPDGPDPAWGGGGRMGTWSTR

On to “10-5-2020 Hu19-CD828Z (anti-CD19 chimeric antigen receptor)”, for which, in the assay with CD19, the CFSE median fluorescence intensity (lower = more proliferation), FIG. 9B, CD4+ T cells with Hu1928-Hu20BB long 10-21-2020, 4 days with CD19-K562 (NGFR-K562 control 28478) (relative fluorescence units) came to 1410; the CFSE median fluorescence intensity (lower = more proliferation), FIG. 10B, CD8+ T cells with Hu1928-Hu20BB long 10-21-2020, 4 days with CD19-K562 (NGFR-K562 control 24978) (relative fluorescence units) is 1770; the IFNγ ELISA of supernatant; T cells transduced with Hu1928-Hu20BB long 10-21-2020, overnight with CD19-K562 was found to be 8210 pg/mL; the IFNγ release; T cells transduced with Hu1928-Hu20BB long 10-21-2020, with CD19-K562 stood at 37500. Also, in the assay with CD19, the IFNγ release; T cells transduced with monospecific 10-5-2020 Hu19-CD828Z, with CD19-K562 (untransduced T cells: 217.2) came to 22000; the IFNγ release; T cells transduced with monospecific 10-5-2020 Hu19-CD828Z, with ST486, which expresses CD19 (weakly) and CD20 (untransduced T cells: 1674.8) was 2070; the IFNγ release; T cells transduced with monospecific 10-5-2020 Hu19-CD828Z, with Toledo, which expresses CD19 and CD20 (untransduced T cells: 542.3) amounted to 3200; the IL-2 ELISA of supernatant; T cells transduced with Hu1928-Hu20BB long 10-21-2020, overnight with CD19-K562 is 496 pg/mL. Moreover, in the assay with CD20, the IFNγ release; T cells transduced with monospecific 10-5-2020 Hu19-CD828Z, with CD19-negative CD20-K562 (untransduced T cells: 201.3) came to 291; the IFNγ release; T cells transduced with monospecific 10-5-2020 Hu19-CD828Z, with ST486 CD19-negative (untransduced T cells: 1464.3) came out at 1360; the IFNγ release; T cells transduced with monospecific 10-5-2020 Hu19-CD828Z, with Toledo CD19-negative (untransduced T cells: 372.7) is 702.

The values are drawn from US20240165153A1.
